# Target: feline FcRn complex (FcRn-α subunit and β-microglobulin), biotin labeled (feline)
# Assay: SPR, pH 6
row,Binder,Kd
1,"feline IgG1a H436R (antibody, part only; not given: Variable domains, not shown: another chain or arm of the molecule) constant: ASTTAPSVFPLAPSCGTTSGATVALACLVLGYFPEPVTVSWNSGALTSGVHTFPAVLQASGLYSLSSMVTVPSSRWLSDTFTCNVAHPPSNTKVDKTVRKTDHPPGPKPCDCPKCPPPEMLGGPSIFIFPPKPKDTLSISRTPEVTCLVVDLGPDDSDVQITWFVDNTQVYTAKTSPREEQFNSTYRVVSVLPILHQDWLKGKEFKCKVNSKSLPSPIERTISKAKGQPHEPQVYVLPPAQEELSRNKVSVTCLIKSFHPPDIAVEWEITGQPEPENNYRTTPPQLDSDGTYFVYSKLSVDRSHWQRGNTYTCSVSHEALHSHRTQKSLTQSPGK",5.69 nM
2,"feline IgG1a T250E (antibody, part only; not given: Variable domains, not shown: another chain or arm of the molecule) constant: ASTTAPSVFPLAPSCGTTSGATVALACLVLGYFPEPVTVSWNSGALTSGVHTFPAVLQASGLYSLSSMVTVPSSRWLSDTFTCNVAHPPSNTKVDKTVRKTDHPPGPKPCDCPKCPPPEMLGGPSIFIFPPKPKDELSISRTPEVTCLVVDLGPDDSDVQITWFVDNTQVYTAKTSPREEQFNSTYRVVSVLPILHQDWLKGKEFKCKVNSKSLPSPIERTISKAKGQPHEPQVYVLPPAQEELSRNKVSVTCLIKSFHPPDIAVEWEITGQPEPENNYRTTPPQLDSDGTYFVYSKLSVDRSHWQRGNTYTCSVSHEALHSHHTQKSLTQSPGK",6.07 nM
3,"feline IgG1a A378C (antibody, part only; not given: Variable domains, not shown: another chain or arm of the molecule) constant: ASTTAPSVFPLAPSCGTTSGATVALACLVLGYFPEPVTVSWNSGALTSGVHTFPAVLQASGLYSLSSMVTVPSSRWLSDTFTCNVAHPPSNTKVDKTVRKTDHPPGPKPCDCPKCPPPEMLGGPSIFIFPPKPKDTLSISRTPEVTCLVVDLGPDDSDVQITWFVDNTQVYTAKTSPREEQFNSTYRVVSVLPILHQDWLKGKEFKCKVNSKSLPSPIERTISKAKGQPHEPQVYVLPPAQEELSRNKVSVTCLIKSFHPPDICVEWEITGQPEPENNYRTTPPQLDSDGTYFVYSKLSVDRSHWQRGNTYTCSVSHEALHSHHTQKSLTQSPGK",77.3 nM
4,"feline IgG1a T437R (antibody, part only; not given: variable domains and light chain, not shown: another chain or arm of the molecule) constant: ASTTAPSVFPLAPSCGTTSGATVALACLVLGYFPEPVTVSWNSGALTSGVHTFPAVLQASGLYSLSSMVTVPSSRWLSDTFTCNVAHPPSNTKVDKTVRKTDHPPGPKPCDCPKCPPPEMLGGPSIFIFPPKPKDTLSISRTPEVTCLVVDLGPDDSDVQITWFVDNTQVYTAKTSPREEQFNSTYRVVSVLPILHQDWLKGKEFKCKVNSKSLPSPIERTISKAKGQPHEPQVYVLPPAQEELSRNKVSVTCLIKSFHPPDIAVEWEITGQPEPENNYRTTPPQLDSDGTYFVYSKLSVDRSHWQRGNTYTCSVSHEALHSHHRQKSLTQSPGK",6.85 nM
5,"feline IgG1a T437A (antibody, part only; not given: Variable domains, not shown: another chain or arm of the molecule) constant: ASTTAPSVFPLAPSCGTTSGATVALACLVLGYFPEPVTVSWNSGALTSGVHTFPAVLQASGLYSLSSMVTVPSSRWLSDTFTCNVAHPPSNTKVDKTVRKTDHPPGPKPCDCPKCPPPEMLGGPSIFIFPPKPKDTLSISRTPEVTCLVVDLGPDDSDVQITWFVDNTQVYTAKTSPREEQFNSTYRVVSVLPILHQDWLKGKEFKCKVNSKSLPSPIERTISKAKGQPHEPQVYVLPPAQEELSRNKVSVTCLIKSFHPPDIAVEWEITGQPEPENNYRTTPPQLDSDGTYFVYSKLSVDRSHWQRGNTYTCSVSHEALHSHHAQKSLTQSPGK",8.79 nM
6,"feline IgG1a P247V (antibody, part only; not given: Variable domains, not shown: another chain or arm of the molecule) constant: ASTTAPSVFPLAPSCGTTSGATVALACLVLGYFPEPVTVSWNSGALTSGVHTFPAVLQASGLYSLSSMVTVPSSRWLSDTFTCNVAHPPSNTKVDKTVRKTDHPPGPKPCDCPKCPPPEMLGGPSIFIFPPKVKDTLSISRTPEVTCLVVDLGPDDSDVQITWFVDNTQVYTAKTSPREEQFNSTYRVVSVLPILHQDWLKGKEFKCKVNSKSLPSPIERTISKAKGQPHEPQVYVLPPAQEELSRNKVSVTCLIKSFHPPDIAVEWEITGQPEPENNYRTTPPQLDSDGTYFVYSKLSVDRSHWQRGNTYTCSVSHEALHSHHTQKSLTQSPGK",5.21 nM
7,"feline IgG1a Y285A (antibody, part only; not given: Variable domains, not shown: another chain or arm of the molecule) constant: ASTTAPSVFPLAPSCGTTSGATVALACLVLGYFPEPVTVSWNSGALTSGVHTFPAVLQASGLYSLSSMVTVPSSRWLSDTFTCNVAHPPSNTKVDKTVRKTDHPPGPKPCDCPKCPPPEMLGGPSIFIFPPKPKDTLSISRTPEVTCLVVDLGPDDSDVQITWFVDNTQVATAKTSPREEQFNSTYRVVSVLPILHQDWLKGKEFKCKVNSKSLPSPIERTISKAKGQPHEPQVYVLPPAQEELSRNKVSVTCLIKSFHPPDIAVEWEITGQPEPENNYRTTPPQLDSDGTYFVYSKLSVDRSHWQRGNTYTCSVSHEALHSHHTQKSLTQSPGK",8.01 nM
8,"feline IgG1a L432S (antibody, part only; not given: Variable domains, not shown: another chain or arm of the molecule) constant: ASTTAPSVFPLAPSCGTTSGATVALACLVLGYFPEPVTVSWNSGALTSGVHTFPAVLQASGLYSLSSMVTVPSSRWLSDTFTCNVAHPPSNTKVDKTVRKTDHPPGPKPCDCPKCPPPEMLGGPSIFIFPPKPKDTLSISRTPEVTCLVVDLGPDDSDVQITWFVDNTQVYTAKTSPREEQFNSTYRVVSVLPILHQDWLKGKEFKCKVNSKSLPSPIERTISKAKGQPHEPQVYVLPPAQEELSRNKVSVTCLIKSFHPPDIAVEWEITGQPEPENNYRTTPPQLDSDGTYFVYSKLSVDRSHWQRGNTYTCSVSHEASHSHHTQKSLTQSPGK",6.58 nM
9,"feline IgG1a A378E (antibody, part only; not given: Variable domains, not shown: another chain or arm of the molecule) constant: ASTTAPSVFPLAPSCGTTSGATVALACLVLGYFPEPVTVSWNSGALTSGVHTFPAVLQASGLYSLSSMVTVPSSRWLSDTFTCNVAHPPSNTKVDKTVRKTDHPPGPKPCDCPKCPPPEMLGGPSIFIFPPKPKDTLSISRTPEVTCLVVDLGPDDSDVQITWFVDNTQVYTAKTSPREEQFNSTYRVVSVLPILHQDWLKGKEFKCKVNSKSLPSPIERTISKAKGQPHEPQVYVLPPAQEELSRNKVSVTCLIKSFHPPDIEVEWEITGQPEPENNYRTTPPQLDSDGTYFVYSKLSVDRSHWQRGNTYTCSVSHEALHSHHTQKSLTQSPGK",63.6 nM
10,"feline IgG1a A378D (antibody, part only; not given: Variable domains, not shown: another chain or arm of the molecule) constant: ASTTAPSVFPLAPSCGTTSGATVALACLVLGYFPEPVTVSWNSGALTSGVHTFPAVLQASGLYSLSSMVTVPSSRWLSDTFTCNVAHPPSNTKVDKTVRKTDHPPGPKPCDCPKCPPPEMLGGPSIFIFPPKPKDTLSISRTPEVTCLVVDLGPDDSDVQITWFVDNTQVYTAKTSPREEQFNSTYRVVSVLPILHQDWLKGKEFKCKVNSKSLPSPIERTISKAKGQPHEPQVYVLPPAQEELSRNKVSVTCLIKSFHPPDIDVEWEITGQPEPENNYRTTPPQLDSDGTYFVYSKLSVDRSHWQRGNTYTCSVSHEALHSHHTQKSLTQSPGK",100 nM
11,"feline IgG1a T250V (antibody, part only; not given: Variable domains, not shown: another chain or arm of the molecule) constant: ASTTAPSVFPLAPSCGTTSGATVALACLVLGYFPEPVTVSWNSGALTSGVHTFPAVLQASGLYSLSSMVTVPSSRWLSDTFTCNVAHPPSNTKVDKTVRKTDHPPGPKPCDCPKCPPPEMLGGPSIFIFPPKPKDVLSISRTPEVTCLVVDLGPDDSDVQITWFVDNTQVYTAKTSPREEQFNSTYRVVSVLPILHQDWLKGKEFKCKVNSKSLPSPIERTISKAKGQPHEPQVYVLPPAQEELSRNKVSVTCLIKSFHPPDIAVEWEITGQPEPENNYRTTPPQLDSDGTYFVYSKLSVDRSHWQRGNTYTCSVSHEALHSHHTQKSLTQSPGK",6.87 nM

# Binders with a lower Kd, results first:
row,Kd,Binder
1,4.94 nM,"feline IgG1a T250S (antibody, part only; not given: Variable domains, not shown: another chain or arm of the molecule) constant: ASTTAPSVFPLAPSCGTTSGATVALACLVLGYFPEPVTVSWNSGALTSGVHTFPAVLQASGLYSLSSMVTVPSSRWLSDTFTCNVAHPPSNTKVDKTVRKTDHPPGPKPCDCPKCPPPEMLGGPSIFIFPPKPKDSLSISRTPEVTCLVVDLGPDDSDVQITWFVDNTQVYTAKTSPREEQFNSTYRVVSVLPILHQDWLKGKEFKCKVNSKSLPSPIERTISKAKGQPHEPQVYVLPPAQEELSRNKVSVTCLIKSFHPPDIAVEWEITGQPEPENNYRTTPPQLDSDGTYFVYSKLSVDRSHWQRGNTYTCSVSHEALHSHHTQKSLTQSPGK"
2,4.72 nM,"feline IgG1a P247L (antibody, part only; not given: Variable domains, not shown: another chain or arm of the molecule) constant: ASTTAPSVFPLAPSCGTTSGATVALACLVLGYFPEPVTVSWNSGALTSGVHTFPAVLQASGLYSLSSMVTVPSSRWLSDTFTCNVAHPPSNTKVDKTVRKTDHPPGPKPCDCPKCPPPEMLGGPSIFIFPPKLKDTLSISRTPEVTCLVVDLGPDDSDVQITWFVDNTQVYTAKTSPREEQFNSTYRVVSVLPILHQDWLKGKEFKCKVNSKSLPSPIERTISKAKGQPHEPQVYVLPPAQEELSRNKVSVTCLIKSFHPPDIAVEWEITGQPEPENNYRTTPPQLDSDGTYFVYSKLSVDRSHWQRGNTYTCSVSHEALHSHHTQKSLTQSPGK"
3,4.66 nM,"feline IgG1a T250I (antibody, part only; not given: Variable domains, not shown: another chain or arm of the molecule) constant: ASTTAPSVFPLAPSCGTTSGATVALACLVLGYFPEPVTVSWNSGALTSGVHTFPAVLQASGLYSLSSMVTVPSSRWLSDTFTCNVAHPPSNTKVDKTVRKTDHPPGPKPCDCPKCPPPEMLGGPSIFIFPPKPKDILSISRTPEVTCLVVDLGPDDSDVQITWFVDNTQVYTAKTSPREEQFNSTYRVVSVLPILHQDWLKGKEFKCKVNSKSLPSPIERTISKAKGQPHEPQVYVLPPAQEELSRNKVSVTCLIKSFHPPDIAVEWEITGQPEPENNYRTTPPQLDSDGTYFVYSKLSVDRSHWQRGNTYTCSVSHEALHSHHTQKSLTQSPGK"
4,4.51 nM,"feline IgG1a P247I (antibody, part only; not given: Variable domains, not shown: another chain or arm of the molecule) constant: ASTTAPSVFPLAPSCGTTSGATVALACLVLGYFPEPVTVSWNSGALTSGVHTFPAVLQASGLYSLSSMVTVPSSRWLSDTFTCNVAHPPSNTKVDKTVRKTDHPPGPKPCDCPKCPPPEMLGGPSIFIFPPKIKDTLSISRTPEVTCLVVDLGPDDSDVQITWFVDNTQVYTAKTSPREEQFNSTYRVVSVLPILHQDWLKGKEFKCKVNSKSLPSPIERTISKAKGQPHEPQVYVLPPAQEELSRNKVSVTCLIKSFHPPDIAVEWEITGQPEPENNYRTTPPQLDSDGTYFVYSKLSVDRSHWQRGNTYTCSVSHEALHSHHTQKSLTQSPGK"
5,4.35 nM,"feline IgG1a T250Q (antibody, part only; not given: Variable domains, not shown: another chain or arm of the molecule) constant: ASTTAPSVFPLAPSCGTTSGATVALACLVLGYFPEPVTVSWNSGALTSGVHTFPAVLQASGLYSLSSMVTVPSSRWLSDTFTCNVAHPPSNTKVDKTVRKTDHPPGPKPCDCPKCPPPEMLGGPSIFIFPPKPKDQLSISRTPEVTCLVVDLGPDDSDVQITWFVDNTQVYTAKTSPREEQFNSTYRVVSVLPILHQDWLKGKEFKCKVNSKSLPSPIERTISKAKGQPHEPQVYVLPPAQEELSRNKVSVTCLIKSFHPPDIAVEWEITGQPEPENNYRTTPPQLDSDGTYFVYSKLSVDRSHWQRGNTYTCSVSHEALHSHHTQKSLTQSPGK"

# — US20240400708A1
